Reference: the supplement of paper PMC9170038

Test system: MS2 coat protein
Assay: apparent KD of MS2 coat protein; designed switch direction (-1 OFF switch, 1 ON switch): -1; higher = weaker reporter binding
How it was run: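 Three titration conditions were used: no input, 200 uM small-molecule ligand, and an oligonucleotide input. In each, SNAP-549-labelled MS2 coat protein was raised from 0.7 or 1.5 nM, doubling, to 3 µM over designed RNA switches transcribed on Illumina chips by stalled E. coli RNA polymerase. Curve fits of normalised cluster fluorescence gave values whose per-design median over clusters is the apparent KD.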

[1] = Eterna round: R95, input ligand: microRNA oligo, concentration not stated
[2] = input ligand: microRNA oligo, concentration not stated
[3] = Eterna round: R95, input ligand: FMN 200 uM
[4] = Eterna round: R95, input ligand: none

Sequence | apparent KD of MS2 coat protein (input ligand: FMN 200 uM) [nM] | apparent KD of MS2 coat protein (input ligand: none) [nM] | apparent KD of MS2 coat protein [1] [nM] | apparent KD of MS2 coat protein [2] [nM] | apparent KD of MS2 coat protein [3] [nM] | apparent KD of MS2 coat protein [4] [nM]
UCCAGCAUACGGAGAUCCAACAUGAGGAUCACCCAUGUCUGGAAAGCUUUUUGCUUGUCUUAUCCUCCUCUGUGUGC [Design #6] (Eterna round: R97, puzzle: Sensor, turn-off variant 1) | 22.5 | 22.9 | – | – | – | –
GAUUAACAUGAGGAUCACCCAUGUGAGGAUAUGGAAUGGCUCAUUGUUUGAUUCCCGUCUAGAAGGCACAUCUU [1986#7] (Eterna round: R97, puzzle: Exclusion 1) | 150 | 116 | – | – | – | –
UAAUUACAUGAGGAUCACCCAUGUGAGGAUAUGUCCAUAUUCGGCAAAUCGGAUAUGGACAGAAGGCACACCGG [JR_Exclusion1_Sub009] (puzzle: Exclusion 1) | – | – | 55.8 | – | – | –
AGUGCUGCAGGAUAUUCUAUUAAUUACAUGAGGAUCACCCAUGUGAAUGGACAAGGGUGUGAAGAAGGGUGGUGCG [Omei Ex5 A17h] (Eterna round: R97, puzzle: Exclusion 5) | 375 | 605 | – | – | – | –
AGCUGUGGCCGAGGAUAUGACAUGAGGAUCACCCAUGUACAUAAUUAGGCCUGGUAACAGGCUCGUCAGAAGGCGGUCUCAGCA [Eli eng2 - 007] (Eterna round: R96, puzzle: Exclusion NG 2) | 12.3 | 12.6 | – | 8.31 | – | –
AAUUAGUAUGUGAGGAUAUUGACGUAAUGACUGGUUAAGAAGGCACAUGAGGAUCACCCAUGUGGGAAGUCACG [JR_BMEx4_Sub011] (Eterna round: R97, puzzle: Brourd's mod of Exclusion 4) | 56.8 | 15.2 | – | – | – | –
AAACGGCAGGGAGGAUAUGCUUGCCUGGGUCGUCUUCAGACAUGAGGAUCACCCAUGUAGUCGACGCAGAAGGCCCUCAAAGCC [JL ViennaUCT Ontiis mod 5] (Eterna round: R96, puzzle: Exclusion NG 2) | 158 | 18.1 | – | 16.2 | – | –
UGAAAACAUGAGGAUCACCCAUGUAAGGAUAUGCAAAAGGAUAUAGAAGGAAAAAAAAGCAGAAGGUACAAAGG [salish99-ex1_r3_095] (puzzle: Exclusion 1) | – | – | 86.6 | – | 99.4 | 60.3
UUAAUGACUGUGAGGAUAUCGGAUAGAUAGAUAUUUGAGAAGGUACAUGAGGAUCACCCAUGUGUGAUUAGAGA [Brourd's EX4 #66] (Eterna round: R97, puzzle: Brourd's mod of Exclusion 4) | 246 | 253 | – | – | – | –
CCACCUCACGUCAGGAUAUCCAUCUCGAGUGAGGAGGAGAAGGGACAUGAGGAUCACCCAUGUAUAGAAAGAAA [Veaonce] (Eterna round: R97, puzzle: Brourd's mod of Exclusion 4) | 35.1 | 22.1 | – | – | – | –
AAAUAGCAUGAGGAUAUUGAACUGUAUACAGUACGAGAAGGCAUGACAUGAGGAUCACCCAUGUUUUGUUGGGA [EX6 #4] (Eterna round: R97, puzzle: Exclusion 6) | 119 | 49 | – | – | – | –
CCUACGUUGUAGGAUAUAGUGAUUUAUUAAUAUUUAGAAGGACAUACAUGAGGAUCACCCAUGUGAGUUGGGUG [Eternabot (L2) Solution 27] (Eterna round: R97, puzzle: Exclusion 6) | 153 | 674 | – | – | – | –
ACUGGUCGAGGAUAUACAAUCGUGCUUCGGCACGUAAGGUCACAUGAGGAUCACCCAUGUAGAAGGCGACCAGU [E2/2-A3] (Eterna round: R97, puzzle: Exclusion 2) | 226 | 29.5 | – | – | – | –
CGAUGCUCGAGUCGACAUGAGGAUCACCCAUGUAGAGUUAGUGAGGAUAUCGGAGACACAUAGUAUGAGAAGGCGCGAACCUGA [Ex NG3 #17] (Eterna round: R96, puzzle: Exclusion NG 3) | 21.8 | 18.8 | – | 16.3 | – | –
AGCAUGCUAGGAUAUACGAAACAUUAGGGUUCUUUGUAUAAACAUGAGGAUCACCCAUGUAGAAGGAGCGUGCA [Mat - Exclusion 2 - Mod of Hyphema - D97] (puzzle: Exclusion 2) | – | – | 40.9 | – | – | –
AUAUUAAGUGUGAGGAUAUGCUGGUCCUUGGAUCAGCAGAAGGCACAUGAGGAUCACCCAUGUAAUAUAUUUAA [Mat - Exclusion 4 - JL Mod - D48] (puzzle: Brourd's mod of Exclusion 4) | – | – | 87.2 | – | – | –
CAGUACUGAGGAUAUACAUGAGGAUCACCCAUGUGUUCCAGCUAGGAUACUAGCAAAGGAAGAAGGCAGUACUG [Mat - Exclusion 3 - Eli Mod - D2] (Eterna round: R97, puzzle: Exclusion 3) | 19.4 | 18.9 | – | – | – | –

Sequence | apparent KD of MS2 coat protein (input ligand: FMN 200 uM) [nM] | apparent KD of MS2 coat protein (input ligand: none) [nM] | apparent KD of MS2 coat protein [1] [nM] | apparent KD of MS2 coat protein [2] [nM] | apparent KD of MS2 coat protein [3] [nM] | apparent KD of MS2 coat protein [4] [nM]
AUAUUGCGAGGAUAUACAUGAGGAUCACCCAUGUGGUAGUAGAUACGGUAGGGCUAGUGUAGAAGGUGUUAUGA [EX3 #14] (Eterna round: R97, puzzle: Exclusion 3) | 80.2 | 172 | – | – | – | –
AGUACUAACACGAAAGUGUUAGUACAAAUGAGCUUUUGAACAUGAGGAUCACCCAUGUCCUCAUAAGCUCGUCUUAA [Mat - Sensor v2 - var 2 - Mod - D174] (Eterna round: R96, puzzle: Sensor v2, turn-off variant 2) | 27.4 | 32.2 | – | 408 | – | –
UAUUAGCAAGUGAGGUCCCACAUGAGGAUCACCCAUGUGCUCGUCUUAUAAGGUACUGUGACGAAAGUCACGGUACC [Sensor 3, v1 - 95 v4] (Eterna round: R97, puzzle: Sensor, turn-off variant 1) | 48.7 | 40.8 | – | – | – | –
CCCUCAGUCUAGGAUAUAACAAUCAGAUAUCAGUUAGAAGGAGACACAUGAGGAUCACCCAUGUGGGUCAAUAA [Bearener] (puzzle: Exclusion 6) | – | – | 20.2 | – | 50.7 | 21.3
AUUGGACACUCAGGAUAUCAGGUUCUAUACAUGAGGAUCACCCAUGUGGGCGAACCCAUGAUAGCUGAGAAGGGAGUAAUCCUA [Orxete] (Eterna round: R96, puzzle: Exclusion NG 2) | 39 | 19.4 | – | 11.9 | – | –
UAUUAGCAAGUAAGAUCCCACAUGAGGAUCACCCAUGUGCUCGUCUUAUAAGGUACUGUGACGAAAGUCACGGUACC [Sensor 3, v1 - 88] (Eterna round: R96, puzzle: Sensor v3, turn-off variant 1) | 16.7 | 18.1 | – | 313 | – | –
AGAUGUAGAUACCGAUCCUACAUGAGGAUCACCCAUGUAGCAAGACGUGCACGCGAAGCUCGUCAGACUACCAGAAG [salish99_TOv1_r3_083] (puzzle: Sensor v3, turn-off variant 1) | – | – | 99.7 | – | 114 | 137
CCUUGGUGAGGAUAUUGAAAAUCUGUCAUAUGCCGACAACUCAAGAAGGUACAUGAGGAUCACCCAUGUUGGGC [Eternabot (Original) Solution 18] (Eterna round: R97, puzzle: Exclusion 4) | 107 | 102 | – | – | – | –
CAUGAUUGGCGAGGAUAUUGAUCUACAUGGCGACGAGAAGGCGCCUGUCACAUGAGGAUCACCCAUGUGAGUCUGGUGAAUGAG [Ex NG1 #85] (Eterna round: R96, puzzle: Exclusion NG 1) | 67.2 | 42.6 | – | 25 | – | –
UGUACUAACACGAUAGUGUUAGUACUAUAAGCUUGUGUUACAUGAGGAUCACCCAUGUCCUCAUAAGCUCGUCUUGA [Mat - Sensor v3 - Turn-off var 2 - D93] (Eterna round: R96, puzzle: Sensor v3, turn-off variant 2) | 36.8 | 38.9 | – | 472 | – | –
CCUCGACAUGAGGAUCACCCAUGUGAGGAUAUGGCCUGUAUGGCGUGAGCUGAAUCAAUCAGAAGGCGCGUGGG [salish99_ex1_r4_054] (Eterna round: R97, puzzle: Exclusion 1) | 56.3 | 27 | – | – | – | –
GGUACUAACACGAUAGUGUUAGUACUAUAAGCUUGUGUUACAUGAGGAUCACCCAUGUCCUCAUAAGCUCGUCUUGA [Mat - Sensor v3 - Turn-off var 2 - D91] (puzzle: Sensor v3, turn-off variant 2) | – | – | 640 | – | 38 | 36
UUUUUUGUUGUGAGGAUAUCGUUUUUGUUUUGGAUCGAGAAGGCACAUGAGGAUCACCCAUGUUUGUUGUGGUU [JR_BMOE4_Sub087] (puzzle: Brourd's mod of Exclusion 4) | – | – | 78.3 | – | – | –
ACUUGUCAUGAGGAUAUGCGACGCAACGGUGGAGCAGAAGGCGUGACAUGAGGAUCACCCAUGUCAGUUCGCGA [eternacac ex6r4 sub32] (Eterna round: R97, puzzle: Exclusion 6) | 43.4 | 16.1 | – | – | – | –
GUAGAGUCAGGAUAUACGAGAUCGAAAGAUCGGCGGUCCUUACAUGAGGAUCACCCAUGUAGAAGGGACUCUAC [Omei mod 6 to Eli's favorate candidate (ch.parushev)] (Eterna round: R97, puzzle: Exclusion 2) | 258 | 71.3 | – | – | – | –
CACCUGAAUACAGGAUAUCCUACAUGAGGAUCACCCAUGUAAUAAAUGAGAAUUUCGAAUGUAAUGGAGAAGGGUAGAUAAGGC [Ostracism 88 - Jieux - Exclusion NG 2] (Eterna round: R96, puzzle: Exclusion NG 2) | 125 | 86.6 | – | 82.8 | – | –
